Test results reported in PMC5661634.

How the values were obtained:
[1] = biological target: mouse SNX5 PX domain (residues 20–180) (mouse) (UniProt Q9D8U8); experiment: SPR; Biacore T100; PX5 immobilised on a CM5 chip, IncE 109-132 peptide flowed over (33 nM-2.7 uM); 25 °C; 20 mM Na HEPES pH 7.5, 200 mM NaCl, 0.005% Triton-X100; 1:1 fitting model
[2] = biological target: mouse SNX5 PX domain (residues 20–180) (mouse) (UniProt Q9D8U8); experiment: SPR; Biacore T100; PX5 immobilised on a CM5 chip, GST-IncE 109-132 WT or mutants flowed over; 25 °C; 20 mM Na HEPES pH 7.5, 200 mM NaCl, 0.005% Triton-X100; 1:1 steady state analysis

Chain of UniProt Q9D8U8 (Q9D8U8 20-180): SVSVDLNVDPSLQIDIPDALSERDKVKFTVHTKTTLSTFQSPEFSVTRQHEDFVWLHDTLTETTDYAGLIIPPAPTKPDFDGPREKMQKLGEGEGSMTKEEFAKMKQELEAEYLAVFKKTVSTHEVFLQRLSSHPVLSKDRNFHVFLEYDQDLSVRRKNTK

With IncE^109–132 peptide the Kd [1] was 540 nM.
“GST-IncE^109–132 K118A (domain or fragment)” showed a Kd [2] of 790 nM.
“GST-IncE^109–132 WT (domain or fragment)” showed a Kd [2] of 390 nM.
Work on “GST-IncE^109–132 V127A (domain or fragment)” yielded a Kd [2] of 980 nM.
